The numbers were not newly measured in paper doi:10.1101/2025.09.24.678334, which cites them from elsewhere.

Usually Kd stands for a measure of binding affinity in units of concentration.

In the series the target is TATA-binding protein (Homo sapiens) (UniProt P20226).
UniProt P20226, sequence (P20226 whole entry): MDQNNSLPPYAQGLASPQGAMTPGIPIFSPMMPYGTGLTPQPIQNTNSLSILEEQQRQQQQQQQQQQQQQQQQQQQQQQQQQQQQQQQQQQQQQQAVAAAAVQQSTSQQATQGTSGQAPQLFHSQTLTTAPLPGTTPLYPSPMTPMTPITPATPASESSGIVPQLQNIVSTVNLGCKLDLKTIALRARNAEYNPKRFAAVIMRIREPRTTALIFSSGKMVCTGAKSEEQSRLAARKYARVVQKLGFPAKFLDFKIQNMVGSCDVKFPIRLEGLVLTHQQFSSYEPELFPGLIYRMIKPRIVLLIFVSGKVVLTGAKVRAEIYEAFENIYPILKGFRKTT

For the substance Importin 9 (from UniProt Q96P70), the Kd was 1 nM.
